According to IntAct's records for PubMed 21370995:

Biological target: kcru_mouse Ckmt1 (UniProt P30275)

For “Leucine-rich repeat serine/threonine-protein kinase 2 (Homo sapiens), Q5S007 G2019S”, the “effect of a mutation on the interaction” value was “increasing interaction”.
